Patent US20040229298A1
Ends that are not written are not given here.

Key:
[1] = target: GST-SAST1 PDZ domain (human), Q9Y2H9; test: Matrix/G assay ELISA, E6 peptide titrated on GST-PDZ
[2] = target: GST-DLG3 PDZ domains 1-2 (human), Q92796; test: as above
[3] = target: GST-PSD95 PDZ domain 2 (human); test: as above
[4] = target: GST-SIP1 PDZ domain 1 (human); test: as above
[5] = target: GST-MAGI1 PDZ domain 2 (human); test: as above
[6] = target: GST-DLG2 PDZ domain 3 (human); test: as above
[7] = target: GST-SAST2 PDZ domain 1 (human); test: as above
[8] = target: GST-PSD95 PDZ domains 1-3 (human), P78352; test: as above
[9] = target: GST-SAST1 PDZ domain (human), Q9Y2H9; test: G assay ELISA, E6 PL peptide titrated on constant GST-PDZ
[10] = target: GST-DLG3 PDZ domains 1-2 (human), Q92796; test: as above
[11] = target: GST-PSD95 PDZ domain 2 (human); test: as above
[12] = target: GST-SIP1 PDZ domain 1 (human); test: as above
[13] = target: GST-MAGI1 PDZ domain 2 (human); test: as above
[14] = target: GST-DLG2 PDZ domain 3 (human); test: as above
[15] = target: GST-SAST2 PDZ domain 1 (human); test: as above
[16] = target: GST-PSD95 PDZ domains 1-3 (human), P78352; test: as above
[17] = target: GST-TIP1 PDZ domain (human); test: as above
[18] = target: GST-GTPase PDZ domain 1 (human); test: G assay ELISA, 10 uM biotin peptide on anti-GST-captured GST-PDZ
[19] = target: GST-FLJ12615 PDZ domain 1 (human); test: as above
[20] = target: GST-PAR3 PDZ domain 3, clone #182.1 (human); test: as above
[21] = target: GST-TIAM 2 PDZ domain 1 (human); test: as above
[22] = target: GST-KIAA0973 PDZ domain 1, clone #148.5 (human); test: as above
[23] = target: GST-Shank 3 PDZ domain 1 (human); test: as above
[24] = target: GST-KIAA0545 PDZ domain 1 (human); test: as above
[25] = target: GST-AF6 PDZ domain 1 (human); test: as above
[26] = target: GST-NeDLG PDZ domain 2 (human); test: as above
[27] = target: GST-KIAA1634 PDZ domain 5 (human); test: as above
[28] = target: GST-RGS12 PDZ domain 1 (human); test: as above
[29] = target: GST-MAGI 1 PDZ domain 3 (human); test: as above
[30] = target: GST-KIAA0316 PDZ domain 1 (human); test: as above
[31] = target: GST-ZO-2 PDZ domain 1 (human); test: as above

Chain of GST-DLG3 PDZ domains 1-2 (human), Q92796 (Q92796 other isoform, or with tags, fused parts or gaps limits assumed): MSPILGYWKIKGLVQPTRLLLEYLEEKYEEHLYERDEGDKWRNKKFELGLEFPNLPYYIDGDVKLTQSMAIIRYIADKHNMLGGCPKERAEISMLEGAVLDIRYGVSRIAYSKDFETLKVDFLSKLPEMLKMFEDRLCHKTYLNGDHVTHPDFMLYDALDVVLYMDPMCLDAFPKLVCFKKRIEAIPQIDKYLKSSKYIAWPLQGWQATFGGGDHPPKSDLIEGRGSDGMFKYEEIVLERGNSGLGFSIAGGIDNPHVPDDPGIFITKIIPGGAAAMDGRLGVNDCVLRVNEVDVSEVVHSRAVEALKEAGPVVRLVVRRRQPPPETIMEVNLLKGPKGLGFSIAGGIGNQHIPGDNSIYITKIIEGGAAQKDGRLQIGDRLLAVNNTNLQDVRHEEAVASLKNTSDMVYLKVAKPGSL

## WTGRCMSCCRSSRTRRETQL (not fully specified; cysteine pairing not given here) [HPV16 E6 C-terminal PDZ ligand peptide (20 mer, biotinylated), P03126 139-158]
[1]
  EC50: 580 nM
[2]
  EC50: 3.8 µM
[3]
  EC50: 6.8 µM
[4]
  EC50: 7.5 µM
[5]
  EC50: 56 nM
[6]
  EC50: 1600 nM
[7]
  EC50: 1200 nM
[8]
  EC50: 1000 nM
[9]
  EC50: 580 nM
[10]
  EC50: 3.8 µM
[11]
  EC50: 6.8 µM
[12]
  EC50: 7.5 µM
[13]
  EC50: 56 nM
[14]
  EC50: 1600 nM
[15]
  EC50: 1200 nM
[16]
  EC50: 1000 nM
[17]
  EC50: 750 nM
[18]
  Ave OD: 0.35 A450 nm
  OD S/N (ratio to GST only well): 1.12
[19]
  Ave OD: 0.461 A450 nm
  OD S/N (ratio to GST only well): 2.24
[20]
  Ave OD: 0.445 A450 nm
  OD S/N (ratio to GST only well): 2.07
[21]
  Ave OD: 0.356 A450 nm
  OD S/N (ratio to GST only well): 2.05
[22]
  Ave OD: 0.378 A450 nm
  OD S/N (ratio to GST only well): 1.68
[23]
  Ave OD: 0.396 A450 nm
  OD S/N (ratio to GST only well): 2.61
[24]
  Ave OD: 0.44 A450 nm
  OD S/N (ratio to GST only well): 3.96
[25]
  Ave OD: 0.444 A450 nm
  OD S/N (ratio to GST only well): 1.8
[26]
  Ave OD: 0.425 A450 nm
  OD S/N (ratio to GST only well): 2.2
[27]
  Ave OD: 0.403 A450 nm
  OD S/N (ratio to GST only well): 2.07
[28]
  Ave OD: 0.429 A450 nm
  OD S/N (ratio to GST only well): 3.96
[29]
  Ave OD: 0.354 A450 nm
  OD S/N (ratio to GST only well): 1.46
[30]
  Ave OD: 0.343 A450 nm
  OD S/N (ratio to GST only well): 2.34
[31]
  Ave OD: 0.342 A450 nm
  OD S/N (ratio to GST only well): 2.11
